Experimental data taken from the DeepSol protein solubility set.

Assay: soluble on expression in E. coli; label from the status in PepcDB or PDB records

Row | Sequence | soluble on expression in E. coli
1 | MGGMHAHVILAAGQGTRMRSRLPKVLHPLLGKPMLLYALEAALALKPERLVVVVGHGGEKVVEALEGYPVEVAWQKEQLGTAHALLQAEGLLRDFPGPFLVTQGDTPLLSPRTLEALLRRVREGAGMALLTAELPDPTGYGRILREGEEVLGNVEEKDAPPEVRAIREVNAGAYAFDGFLFQALKEVRNENAAREYYLPDLIAIYRAHGRRVLAVRGVAEEALGVNTREELARVEGVLLRRLRAEWMGKGVRMILPETIYLEPSVELAPDVTLWPGAVLKGKTRIGEGCEVGPYAVLEDTVLEPGAKVLAHTVAQGAHLHPGASAGPFARLRPGAVLMEEVHVGNFVEVKNSLLHKGVKAGHLAYLGDAEVGEGTNIGAGVITANYDGKRKHKTEIGKKAFIGSNSVLVAPVRVGDRALVGAGSVITQDVPEGALAVARERQKNLEGYALRKLGEG | soluble
2 | MGGMPITSFKFLYYFQIDDGDEETDIYLSPKEKATQTFSIKYNNNNTPTFSGDLRAGEKYTFDFHINFYDFATITIVQKREGEEELRIEYLNIPVEKRSEDHFERHF | not soluble
3 | MGGSHHHHHHGMASALKEAMVQAEEAAAEITRKLEKQEKKRLKKEKKRLAALALASSENSSSTPEECEEMSEKPKKKKKQKPQEVPQENGMEDPSISFSKPKKKKSFSKEELMSSDLEETAGSTSIPKRKKSTPKEETVNDPEEAGHRSGSKKKRKFSKEEPVSSGPEEAVGKSSSKKKKKFHKASQED | not soluble
4 | MGGSHHHHHHGMASALVRISKPKTFQAYLDDCHRRYSCAHCRAHLANHDDLISKSFQGSQGRAYLFNSVVNVGCGPAEERVLLTGLHAVADIHCENCKTTLGWKYEQAFESSQKYKEGKYIIELNHMIKDNGWD | not soluble
5 | MGGSHHHHHHGMASGSAGLSRLHGLFAVYKPPGLKWKHLRDTVELQLLKGLNARKPPAPKQRVRFLLGPMEGSEEKELTLTATSVPSFINHPLVCGPAFAHLKVGVGHRLDAQASGVLVLGVGHGCRLLTDMYNAHLTKDYTVRGLLGKATDDFREDGRLVEKTTYDHVTREKLDRILAVIQGSHQKALVMYSNLDLKTQEAYEMAVRGLIRPMNKSPMLITGIRCLYFAPPEFLLEVQCMHETQKELRKLVHEIGLELKTTAVCTQVRRTRDGFFTLDSALLRTQWDLTNIQDAIRAATPQVAAELEKSLSPGLDTKQLPSPGWSWDSQGPSSTLGLERGAGQ | not soluble
6 | MGGSHHHHHHGMASGSPPTQPSPASDSGSGYVPGSVSAAFVTCPNEKVAKEIARAVVEKRLAACVNLIPQITSIYEWKGKIEEDSEVLMMIKTQSSLVPALTDFVRSVHPYEVAEVIALPVEQGNFPYLQWVRQVTESVSDSITVLP | soluble
7 | MGGSHHHHHHGMASPLLTQQIQDEDDQYSLVASLDNVRNLSTILKAIHFREHATCFATKNGIKVTVENAKCVQANAFIQAGIFQEFKVQEESVTFRINLTVLLDCLSIFGSSPMPGTLTALRMCYQGYGYPLMLFLEEGGVVTVCKITTQEPEETLDFDFCSTNVINKIILQSEGLREAFSELDMTSEVLQITMSPDKPYFRLSTFGNAGSSHLDYPKDSDLMEAFHCNQTQVNRYKISLLKPSTKALVLSCKVSIRTDNRGFLSLQYMIRNEDGQICFVEYYCCPDEEVPESES | not soluble
8 | MGGVKKNALLDYVFTKALENLTALFTQLNITAVKEIIRPLETGHEAYFVLPIDARTLKVLMIELEESIPLARLWDLDVFNAKGNLLSRTDFDLSPRTCLVCGENAKICARTHKHEIDEIVDKIQSLAQNHDFAEHIGEQVYLALIQEARLSPKPGLVDAINNGSHKDMNLHTFEQSAISLKPFFTQFVLKGMMTAHLSENQILSEIRPLGLLAEKAMFKVTDGVNTHKGAIFSFGLVCTAIGRLLAQKSLVQSAVDFDVKLICSLVAQFTQGLTDELKNYPEHLPSTAGVRLFQKYGLTGVRGEAENGFNLIQTLLPQFDEYHQLEWEHRLLILLLNLMAINSDTNVVHRGGLAGLYFIQQTAQDLLTDQHLVTDKTALTQALMKFDTACIERNLSSGGSADLLALTIFFLSFRGN | not soluble
9 | MGHGEEPLTATYKTQRPPWIGLWSDREYKGRADWWKEPGLEDSVTRSGKLRLYRARFREEDPDWYDPKVKDGESLAGPFGLDSKKTKNLTKKGDQPGELSEFQNKVYEGSHQFKAIAEKFGISKEHPGLSVSPTLSDNMLTPKDELGRNAVLPNSWYPAGPRFFDSPLNEGSFWKGLAAAKYAGILLAPYTMLEIRALNTVSVSEFSPRTYMKRYLQLAPFPLAVAFAWGFSLSAASSIRHKDDVHNHWFASVAVGSTVATMKSNVALGTTAAIFTAILGAFWQYQRHSETGLQGMTAHPQSAGIWGGPLLWQKMQLGNADVPTTRY | not soluble
10 | MGHHHHHHENLYFQSHLYFQSHERLSEKKIKNLLTSKQQRQQYEIKQRSMLRHLAELRRHSRFRRLCTKPASSSMPASTSSVDRRTTRRSTSQTSLSPSNSSGYGSVFGCEEHDVDKIPSLNGFAKLKRRRSSCVGAPTPNSKRSKNNMGVIAKRPPKGEYVVERIECVEMD | not soluble
11 | MGHHHHHHGGHMSLIDLHIHSNYSDGQGSVEEIARRAKERGLKAIAIVDHSIELPFGLTEKKARMREIEIENAASLYGIKIYSGIECSINAAGEIVLPDFDFDFIIASVHEFVYGQAYYERVIRCLESHDVDVLGHPFSPLFGFDGRLAEMDEKLLDVVEERGVAVELNSSHKSPQDEFLQLCRDRKIAYSIGSDAHSLSGVGEVGWSVEKAKRYMAGAKLFTPEGGS | soluble
12 | MGHHHHHHGGHMSLRSYLGSISTSKTEVNSMKMHVLKLLIPTMALLLSACASLPPELGNPDDKSVVTQYSAWLERDPATQSPVRMGGVVANISNQKDRTRVELVNLPIDSAGRPNIHQEPQGRFVAYVPGFLDPITYGEGRLLTLYGTTAPSEQGKVGDYEHTYPVMNAQGYHLWRVEERVEVDDIGPYMFPCRGFYCWPRTMPERDGKIIQEVKEGGS | not soluble
13 | MGHHHHHHGGHMSLTKKLHIKTWGCQMNEYDSSKMADLLDATHGYQLTDVAEEADVLLLNTCSIREKAQEKVFHQLGRWKLLKEKNPDLIIGVGGCVASQEGEHIRQRAHYVDIIFGPQTLHRLPEMINSVRGDRSPVVDISFPEIEKFDRLPEPRAEGPTAFVSIMEGCNKYCTYCVVPYTRGEEVSRPSDDILFEIAQLAAQGVREVNLLGQNVNAWRGENYDGTTGSFADLLRLVAAIDGIDRIRFTTSHPIEFTDDIIEVYRDTPELVSFLHLPVQSGSDRILNLMGRTHTALEYKAIIRKLRAARPDIQISSDFIVGFPGETTEDFEKTMKLIADVNFDMSYSFIFSARPGTPAADMVDDVPEEEKKQRLYILQERINQQAMAWSRRMLGTTQRILVEGTSRKSIMELSGRTENNRVVNFEGTPDMIGKFVDVEITDVYPNSLRGKVVRTEDEMGLRVAETPESVIARTRKENDLGVGYYQPEGGS | soluble
14 | MGHHHHHHGSSSCAVSGASGCLPPARSRIFKIIVIGDSNVGKTCLTYRFCAGRFPDRTEATIGVDFRERAVDIDGERIKIQLWDTAGQERFRKSMVQHYYRNVHAVVFVYDMTNMASFHSLPAWIEECKQHLLANDIPRILVGNKCDLRSAIQVPTDLAQKFADTHSMPLFETSAKNPNDNDHVEAIFMTLAHKLKSH | soluble
15 | MGHHHHHHSHAAAIAGAKLRKVSRMEDTSFPSGGNAIGVNSASSKTDTGRGNGPLPLGGSGLMEEMSALLARRRRIAEKGSTIETEQKEDKGEDSEPVTSKASSTSTPEPTRKPWERTNTMNGSKSPVISRPKSTPLSQPSANGVQTEGLDYDRLKQDILDEMRKELTKLKEELIDAIRQELSKSNTA | soluble
16 | MGHHHHHHSHAAMAVEPTQIQLSKRWREIESKFAQFRRLNFAQIHTVREETMMVMTEDMPLEISYVPSTYLTEITHVSQALLEVEQLLNAPDLCAKDFEDLFKQEESLKNIKDSLQQSSGRIDIIHSKKTAALQSATPVERVKLQEALSQLDFQWEKVNKMYKDRQGRFDRSVEKWRRFHYDIKIFNQWLTEAEQFLRKTQIPENWEHAKYKWYLKELQDGIGQRQTVVRTLNATGEEIIQQSSKTDASILQEKLGSLNLRWQEVCKQLSDRKKRLEEQKNILSEFQRDLNEFVLWLEEADNIASIPLEPGKEQQLKEKLEQVKLLVEELPLRQGILKQLNETGGPVLVSAPIS | not soluble
17 | MGHHHHHHSHDHYGCKQCSSLRSIQNLNSLVDKTSWIPSSVAEALGIVPLQYVFVMTFTLDDGTGVLEAYLMDSDKFFQIPASEVLMDDDLQKSVDMIMDMFCPPGIKIDAYPWLECFIKSYNVTNGTDNQICYQIFDTTVAEDVI | not soluble
18 | MGHHHHHHSHEKMNGSHRDQGSSALSGVGGIRLPNGKLKCDICGIICIGPNVLMVHKRSHTGERPFQCNQCGASFTQKGNLLRHIKLHSGEKPFKCHLCNYACRRRDALTGHLRTHSVGKPHKCGYCGRSYKQRSSLEEHKERCHNYLESMGLPGTLYPVIKEETNHSEMAEDLCKIGSERSLVLDRLASNVAKRKSSMP | soluble
19 | MGHHHHHHSHELLVVGSRPELGRWEPRGAVRLRPAGTAAGDGALALQEPGLWLGEVELAAEEAAQDGAEPGRVDTFWYKFLKREPGGELSWEGNGPHHDRCCTYNENNLVDGVYCLPIGHWIEATGHTNEMKHTTDFYFNIAGHQAMHYSRILPNIWLGSCPRQVEHVTIKLKHELGITAVMNFQTEWDIVQNSSGCNRYPEPMTPDTMIKLYREEGLAYIWMPTPDMSTEGRVQMLPQAVCLLHALLEKGHIVYVHCNAGVGRSTAAVCGWLQYVMGWNLRKVQYFLMAKRPAVYI | not soluble
20 | MGHHHHHHSHENKKAKPVPWVEKYRPKCVDEVAFQEEVVAVLKKSLEGADLPNLLFYGPPGTGKTSTILAAARELFGPELFRLRVLELNASDERGIQVVREKVKNFAQLTVSGSRSDGKPCPPFKIVILDEADSMTSAAQAALRRTMEKESKTTRFCLICNYVSRIIEPLTSRCSKFRFKPLSDKIQQQRLLDIAKKENVKISDEGIAYLVKVSEGDLRKAITFLQSATRLTGGKEITEKVITDIAGVIPAEKIDGVFAACQSGSFDKLEAVVKDLIDEGHAATQLVNQLHDVVVENNLSDKQKSIITEKLAEVDKCLADGADEHLQLISLCATVMQQLSQNC | soluble
21 | MGHHHHHHSHINTPEQTVPYGLSNYRGSFRGKRSAGPLPGNLQLSHRPHLRCACVGRYDKACLHFCTQTLDVSSNSRTAEKTDKEEEGKVRGANRGLCQRRLKSRTNKASRL | not soluble
22 | MGHHHHHHSHKKLGLKVGIEIHQQLDTKHKLFCLCPTLTREVEESNFEFFRYLRLKRSEIGEEDRAAKEEVERSRRFIYKYYDTTCLVEADEEPPREVNREALLIAIQVAKMLNMEVVDEVHVMRKIVIDGSNTTGFQRTALVAFGGFLEVDGKRVGVATLCLEEEACRKVEDGEGYAVYSLDRLGIPLVEIGTEPDIDSPEMAKKVAARLGMILRSTGKVKRGLGTIRQDVNISIRDGARVEIKGVQELDILDKIVEYEVLRQVNLLKIR | soluble
23 | MGHHHHHHSHKWELCPVTIISWLNLFLQVDALKDAPKVLLPQYSQETFIQIAQLLDLCILAIDSLEFQYRILTAAALCHFTSIEVVKKASGLEWDSISECVDWMVPFVNVVKSTSPVKLKTFKKIPMEDRHNIQTHTNYLAMLEEVNYINTFRKGGQLSPVCNGGIMT | not soluble
24 | MGHHHHHHSHMAALKEDRSYGLSCGRVSDGSKVSVFHVKLTDSALRAFESYRARQDSVSLRPSIRFQGSQGHISIPQPDCPAEARTFSFYLSNIGRDNPQGSFDCIQQYVSSHGEVHLDCLGSIQDKITVCATDDSYQKARQSMAQAEEETRSRSAIVIKAGGRYLGKKVQFRK | not soluble
25 | MGHHHHHHSHMACYIYQLPSWVLDDLCRNMDALSEWDWMEFASYVITDLTQLRKIKSMERVQGVSITRELLWWWGMRQATVQQLVDLLCRLELYRAAQIILNWKPAPEI | not soluble
